{"source": "patent US7279325B2", "about": "“Method for identifying antagonist compounds of the estrogen-related receptor 3 (ERR3) by using the x-ray structural coordinates of the ligand binding domain” (priority 2002, dated 2007)", "molecules": {"B1": {"name": "GST-tagged SRC-1 RID (Receptor Interaction Domain of hSRC-1, amino acids 614-764) (other, not shown: a dimerising Fc or GST)", "chain": "HNNDRLSDGDSKYSQTSHKLVQLLTTTAEQQLRHADIDTSCKDVLSCTGTSNSASANSSGGSCPSSHSSLTERHKILHRLLQEGSPSDITTLSVEPDKKDSASTSVSVTGQVQGNSSIKLELDASKKKESKDHQLLRYLLDKDEKDLRSTP", "notes": "also called GST-SRC-1 RID; RID of SRC-1"}}, "key": {"ERRα": {"target": "T1, ERRα (Homo sapiens, UniProt P11474)", "T1 sequence (P11474 1-423)": "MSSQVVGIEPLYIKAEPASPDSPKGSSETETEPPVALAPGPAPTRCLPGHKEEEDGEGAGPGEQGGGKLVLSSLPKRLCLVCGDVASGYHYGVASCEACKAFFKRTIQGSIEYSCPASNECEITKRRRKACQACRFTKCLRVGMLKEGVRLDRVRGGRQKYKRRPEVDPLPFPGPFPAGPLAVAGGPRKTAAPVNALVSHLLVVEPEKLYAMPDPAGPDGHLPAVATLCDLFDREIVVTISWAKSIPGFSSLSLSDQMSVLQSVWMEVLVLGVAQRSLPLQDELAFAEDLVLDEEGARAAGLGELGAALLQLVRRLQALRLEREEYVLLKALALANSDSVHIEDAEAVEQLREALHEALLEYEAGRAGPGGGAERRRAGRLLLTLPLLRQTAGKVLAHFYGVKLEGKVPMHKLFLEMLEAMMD", "conditions": "micromolar concentrations; Yang and Chen (1999); cited from earlier work"}, "[1]": {"target": "T2, His-tagged ERR3 LBD mutant A272F (human (human and murine receptor are …, UniProt P62508 229-458))", "T2 construct": "also called ERR3(A272F); ALA272PHE; not shown: hexahistidine tag from vector pET-15b", "T2 sequence": "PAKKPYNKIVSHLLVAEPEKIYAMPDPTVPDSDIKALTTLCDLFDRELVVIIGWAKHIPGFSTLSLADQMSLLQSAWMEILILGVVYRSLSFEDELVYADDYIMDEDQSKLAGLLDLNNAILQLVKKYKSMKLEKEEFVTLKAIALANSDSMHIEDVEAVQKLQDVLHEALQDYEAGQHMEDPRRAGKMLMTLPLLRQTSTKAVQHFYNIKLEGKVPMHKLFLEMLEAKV", "test": "native polyacrylamide gradient gel, no ligand", "description": "(§1) After purification the proteins were dialyzed in assay buffer (20 mM Tris.HCl pH 8.0, 200 mM NaCl), and concentrated. […] Protein complexes were resolved on native polyacrylamide gradient gels (8%-25%) using the Phast System (Pharmacia).\n(§2) In vitro interaction assays with the RID (amino acids 617-764) of the coactivator SRC-1 has first been performed. […] Complexes were separated on native polyacrylamide gradient gels."}, "[2]": {"target": "T3, His-tagged ERR3 LBD mutant F435L (human (human and murine receptor are …, UniProt P62508 229-458))", "T3 construct": "also called ERR3(F435L); PHE435LEU; not shown: hexahistidine tag from vector pET-15b", "T3 sequence": "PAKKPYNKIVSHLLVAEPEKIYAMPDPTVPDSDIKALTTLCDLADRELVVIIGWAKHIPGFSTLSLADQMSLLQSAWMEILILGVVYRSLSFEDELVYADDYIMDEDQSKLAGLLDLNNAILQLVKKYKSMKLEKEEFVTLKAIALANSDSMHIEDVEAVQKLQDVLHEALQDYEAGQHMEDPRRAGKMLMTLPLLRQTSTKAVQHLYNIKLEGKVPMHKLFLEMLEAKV", "test": "native polyacrylamide gradient gel, no ligand", "description": "as §1, §2"}, "[3]": {"target": "T4, His-tagged ERR3 LBD mutant A272L (human (human and murine receptor are …, UniProt P62508 229-458))", "T4 construct": "also called ERR3(A272L); ALA272LEU; not shown: hexahistidine tag from vector pET-15b", "T4 sequence": "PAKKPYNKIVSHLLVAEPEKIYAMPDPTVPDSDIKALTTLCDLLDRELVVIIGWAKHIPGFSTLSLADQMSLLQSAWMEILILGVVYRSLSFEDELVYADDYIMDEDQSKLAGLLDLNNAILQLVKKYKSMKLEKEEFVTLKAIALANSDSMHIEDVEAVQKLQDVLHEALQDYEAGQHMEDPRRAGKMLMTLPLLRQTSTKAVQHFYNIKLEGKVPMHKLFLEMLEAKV", "test": "native polyacrylamide gradient gel, no ligand", "description": "as §1, §2"}, "[4]": {"target": "T5, His-tagged ERR3 LBD (wild type; residues 229 to 458 of the Estrogen-Related Receptor 3) (human (human and murine receptor are …, UniProt P62508 229-458)", "T5 construct": "Expressed in E. coli BL21(DE3); Forms a homodimer in the crystal, in gel filtration and in mass spectrometry; SwissProt O75454 is printed for hERR3; also called wt LBD; wt ERR3; not shown: hexahistidine tag from vector pET-15b", "T5 sequence": "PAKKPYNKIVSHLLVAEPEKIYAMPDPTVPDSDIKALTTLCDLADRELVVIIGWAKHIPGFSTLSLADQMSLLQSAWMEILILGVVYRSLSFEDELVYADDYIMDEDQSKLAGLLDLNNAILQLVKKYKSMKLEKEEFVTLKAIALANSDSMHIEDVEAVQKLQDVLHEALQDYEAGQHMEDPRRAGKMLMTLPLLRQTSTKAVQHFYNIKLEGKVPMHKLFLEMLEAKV", "test": "native polyacrylamide gradient gel, no ligand", "description": "as §1, §2"}, "[5]": {"target": "T6, His-tagged ERR3 LBD mutant L345I (human (human and murine receptor are …, UniProt P62508 229-458))", "T6 construct": "not shown: hexahistidine tag from vector pET-15b", "T6 sequence": "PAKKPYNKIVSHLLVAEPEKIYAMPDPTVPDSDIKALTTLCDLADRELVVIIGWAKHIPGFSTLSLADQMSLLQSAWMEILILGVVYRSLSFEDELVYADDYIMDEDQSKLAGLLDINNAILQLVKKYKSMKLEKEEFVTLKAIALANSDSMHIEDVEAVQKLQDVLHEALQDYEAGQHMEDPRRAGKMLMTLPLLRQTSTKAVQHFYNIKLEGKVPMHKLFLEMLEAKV", "test": "native polyacrylamide gradient gel, no ligand", "description": "as §1, §2"}, "[6]": {"target": "B1", "test": "native polyacrylamide gradient gel, no ligand", "description": "as §1, §2"}, "[7]": {"target": "T5, His-tagged ERR3 LBD (wild type; …)", "test": "crystal structure", "from_the_text": "A.2 Protein Purification, Crystallization, Data Collection and Processing."}}, "data": [{"molecule": "CC1(C)C(C(Cl)Cl)C2(Cl)C(Cl)C(Cl)C1(Cl)C2(Cl)Cl", "note": "(stereo not shown) [toxaphene]", "values": [{"measurement": "ERRα basal activity", "setting": "ERRα", "value": "decrease"}]}, {"molecule": "ClC1=C(Cl)C2(Cl)C3C(Cl)C(Cl)CC3C1(Cl)C2(Cl)Cl", "note": "(stereo not shown) [chlordane]", "values": [{"measurement": "ERRα basal activity", "setting": "ERRα", "value": "decrease"}]}, {"molecule": "B1", "values": [{"measurement": "binding result", "setting": "[1]", "value": "binds"}, {"measurement": "binding result", "setting": "[2]", "value": "binds"}, {"measurement": "binding result", "setting": "[3]", "value": "binds"}, {"measurement": "binding result", "setting": "[4]", "value": "binds"}, {"measurement": "binding result", "setting": "[5]", "value": "binds"}]}, {"molecule": "His-tagged ERR3 LBD mutant L345I-F435L-F450L (receptor, also called triple point mutation; not shown: hexahistidine tag from vector pET-15b) PAKKPYNKIVSHLLVAEPEKIYAMPDPTVPDSDIKALTTLCDLADRELVVIIGWAKHIPGFSTLSLADQMSLLQSAWMEILILGVVYRSLSFEDELVYADDYIMDEDQSKLAGLLDINNAILQLVKKYKSMKLEKEEFVTLKAIALANSDSMHIEDVEAVQKLQDVLHEALQDYEAGQHMEDPRRAGKMLMTLPLLRQTSTKAVQHLYNIKLEGKVPMHKLLLEMLEAKV", "values": [{"measurement": "binding result", "setting": "[6]", "value": "binds"}]}, {"molecule": "His-tagged ERR3 LBD mutant L345I-F435L (receptor, not shown: hexahistidine tag from vector pET-15b) PAKKPYNKIVSHLLVAEPEKIYAMPDPTVPDSDIKALTTLCDLADRELVVIIGWAKHIPGFSTLSLADQMSLLQSAWMEILILGVVYRSLSFEDELVYADDYIMDEDQSKLAGLLDINNAILQLVKKYKSMKLEKEEFVTLKAIALANSDSMHIEDVEAVQKLQDVLHEALQDYEAGQHMEDPRRAGKMLMTLPLLRQTSTKAVQHLYNIKLEGKVPMHKLFLEMLEAKV", "values": [{"measurement": "binding result", "setting": "[6]", "value": "binds"}]}, {"molecule": "RHKILHRLLQEGSPS (Contains the second LXXLL motif of the RID of SRC-1; also called SRC-1 NR box 2 peptide)", "note": "[hSRC-1 peptide (SRC-1 NR box 2, amino acids 686-700)]", "values": [{"measurement": "binding result", "setting": "[7]", "value": "binds"}]}]}
